Experimental data reported in patent US20070037156.

Test system: gelatin

279Arg rare variant of MMP-9 (matrix metalloproteinase-9)
MMP-9 activity by zymography (gelatin in the polyacrylamide gel): Activity in both lanes 1 and 2 of FIG. 4 is similar

279Gln common variant of MMP-9 (matrix metalloproteinase-9)
MMP-9 activity by zymography (gelatin in the polyacrylamide gel): Activity in both lanes 1 and 2 of FIG. 4 is similar
